Assay results published in US11584938B2, “Plant EPSPS mutant containing L195P and S247G mutations and encoding gene and use thereof” (GEVOTO LLC, priority 2017, dated 2023).

System: double knockout E. coli (EPSPS defective E. coli, EDCE)
Assay: growth of EPSPS defective E. coli transformed by the EPSPS gene in M9 culture media containing different glyphosate concentrations
Assay type: cell-based, E. coli DH5α
Conditions: for EPSPS enzyme activity: concluded from growth of defective E. coli at 0 mM glyphosate
Excerpt: A method for detecting the glyphosate resistance of the soybean EPSPS mutant G1 provided in Example 1 and the soybean EPSPS mutant G3 provided in Example 2 is as follows:
according to the sequence of the nucleic acid molecule provided in the example, synthesizing the encoding gene that encodes the soybean EPSPS mutant G1 or G3 using a chemical synthesis method, introducing enzyme sites (Pac1 and Sbf1) at two ends thereof, connecting to an expression vector (for example, a pADV5 vector, the structure of which is as shown in FIG. 15) that has undergone the same restriction enzyme digestion treatment under the action of ligase after restriction enzyme digestion, then transforming double knockout E. coli, picking positive colonies after verification, inoculating the positive colonies to M9 culture media containing different glyphosate concentrations for growth, and observing the growth situation of the E. coli.
The wild-type soybean EPSPS (with an amino acid sequence represented by SEQ ID NO: 2 and an encoding gene sequence represented by SEQ ID NO: 1) and the soybean EPSPS mutant G2 (with an amino acid sequence represented by SEQ ID NO: 6, and a corresponding encoding gene sequence represented by SEQ ID NO: 5) merely containing the mutation P114(101)S were taken as controls.
In the above, the M9 basal culture medium can be prepared by the following method:
5×M9 salt solution: 6.78 g of Na2HPO4, 3.0 g of KH2PO4, 0.5 g of NaCl, and 1.0 g of NH4Cl were weighed, added with ddH2O to 200 ml, and subjected to high-temperature and high-pressure sterilization treatment;
20% glucose: 20 g of glucose was weighed, added with 80 ml of ddH2O for dissolving, diluted to 100 ml, and subjected to filtration and sterilization treatment;
1.0 M MgSO4: 24.6 g of MgSO4-7H2O was weighed, dissolved with 80 ml of ddH2O, diluted to 100 ml, and subjected to sterilization treatment;
1.0 M CaCl2: 11.1 g of CaCl2 was weighed, dissolved with 80 ml of ddH2O, diluted to 100 ml, and subjected to sterilization treatment; and
1000 ml of the M9 basal culture media were prepared by adding ddH2O to 200 ml of 5×M9 salt solution, 20 ml of 20% glucose, 2 ml of 1.0 M MgSO4 and 0.1 ml of 1.0 M CaCl2 to make up to 1000 ml.
In the above, the E. coli used was double knockout E. coli, namely, EPSPS defective E. coli (E. coli DH5α with EPSPS gene and C-P Lyase gene being knocked out, named as EDCE, wherein for a preparation method thereof, reference can be made to a Chinese invention patent with the filing number CN2016103256926).
The glyphosate resistance of the soybean EPSPS mutant G4 provided in Example 3 and the soybean EPSPS mutant G5 provided in Example 4 was verified with reference to the detection method in Experiment Example 1.
The wild-type wheat EPSPS (with an amino acid sequence represented by SEQ ID NO: 14, and a corresponding encoding gene sequence represented by SEQ ID NO: 13) and the wheat EPSPS mutant T2 (with an amino acid sequence represented by SEQ ID NO: 18, and a corresponding encoding gene sequence represented by SEQ ID NO: 17) merely containing the mutation P118(101)S were taken as controls to verify the glyphosate resistance of the wheat EPSPS mutants T1 and T3 provided in Example 5 and Example 6, and reference can be made to Experiment Example 1 for the method.
A method for verifying the glyphosate resistance of the wheat EPSPS mutants T4, T5, and T6 provided in Examples 7-9 is the same as that in Experiment Example 3.
The wild-type rice EPSPS R0 (with an amino acid sequence represented by SEQ ID NO: 28, and a corresponding encoding gene sequence represented by SEQ ID NO: 27) and the rice EPSPS mutant R2 (with an amino acid sequence represented by SEQ ID NO: 32, and a corresponding encoding gene sequence represented by SEQ ID NO: 31) merely containing the mutation P116(101)S were taken as controls to verify the glyphosate resistance of the rice EPSPS mutants R1 and R3 provided in Examples 10 and 11, and reference can be made to Experiment Example 1 for the method. […]

[1] = culture media containing 0 mM glyphosate
[2] = culture media containing 10 mM glyphosate
[3] = culture media containing 20 mM glyphosate

Molecule	EPSPS enzyme activity	growth of the E. coli transformed by the EPSPS [1]	growth of the E. coli transformed by the EPSPS [2]	growth of the transformed E. coli compared with E. coli transformed by the control EPSPS named in the value [2]	growth of the E. coli transformed by the EPSPS [3]	growth of the transformed E. coli compared with E. coli transformed by the control EPSPS named in the value [3]
R3: rice EPSPS mutant, SEQ ID NO: 34, mutations L214(195)P and P116(101)S (protein) MASNAAAAAAKAEEIVLQPIREISGAVQLPGSKSLSNRILLLSALSEGTTVVDNLLNSEDVHYMLEALKALGLSVEADKVAKRAVVVGCGGKFPVEKDAKEEVQLFLGNAGTAMRSLTAAVTAAGGNATYVLDGVPRMRERPIGDLVVGLKQLGADVDCFLGTECPPVRVKGIGGLPGGKVKLSGSISSQYLSALLMAAPLALGDVEIEIIDKPISIPYVEMTLRLMERFGVKAEHSDSWDRFYIKGGQKYKSPGNAYVEGDASSASYFLAGAAITGGTVTVQGCGTTSLQGDVKFAEVLEMMGAKVTWTDTSVTVTGPPREPYGKKHLKAVDVNMNKMPDVAMTLAVVALFADGPTAIRDVASWRVKETERMVAIRTELTKLGASVEEGPDYCIITPPEKLNITAIDTYDDHRMAMAFSLAACADVPVTIRDPGCTRKTFPNYFDVLSTFVRN	normal EPSPS enzyme activity	could grow	could grow	superior to that of the E. coli transformed by R2	–	–
R4: rice EPSPS mutant, SEQ ID NO: 36, mutation S267(247)G (protein) MASNAAAAAAKAEEIVLQPIREISGAVQLPGSKSLSNRILLLSALSEGTTVVDNLLNSEDVHYMLEALKALGLSVEADKVAKRAVVVGCGGKFPVEKDAKEEVQLFLGNAGTAMRPLTAAVTAAGGNATYVLDGVPRMRERPIGDLVVGLKQLGADVDCFLGTECPPVRVKGIGGLPGGKVKLSGSISSQYLSALLMAAPLALGDVEIEIIDKLISIPYVEMTLRLMERFGVKAEHSDSWDRFYIKGGQKYKSPGNAYVEGDASSAGYFLAGAAITGGTVTVQGCGTTSLQGDVKFAEVLEMMGAKVTWTDTSVTVTGPPREPYGKKHLKAVDVNMNKMPDVAMTLAVVALFADGPTAIRDVASWRVKETERMVAIRTELTKLGASVEEGPDYCIITPPEKLNITAIDTYDDHRMAMAFSLAACADVPVTIRDPGCTRKTFPNYFDVLSTFVRN	normal EPSPS enzyme activity	could grow	could grow normally	superior to that of the E. coli transformed by R1	grew obviously	–
R5: rice EPSPS mutant, SEQ ID NO: 38, mutations S267(247)G and P116(101)S (protein) MASNAAAAAAKAEEIVLQPIREISGAVQLPGSKSLSNRILLLSALSEGTTVVDNLLNSEDVHYMLEALKALGLSVEADKVAKRAVVVGCGGKFPVEKDAKEEVQLFLGNAGTAMRSLTAAVTAAGGNATYVLDGVPRMRERPIGDLVVGLKQLGADVDCFLGTECPPVRVKGIGGLPGGKVKLSGSISSQYLSALLMAAPLALGDVEIEIIDKLISIPYVEMTLRLMERFGVKAEHSDSWDRFYIKGGQKYKSPGNAYVEGDASSAGYFLAGAAITGGTVTVQGCGTTSLQGDVKFAEVLEMMGAKVTWTDTSVTVTGPPREPYGKKHLKAVDVNMNKMPDVAMTLAVVALFADGPTAIRDVASWRVKETERMVAIRTELTKLGASVEEGPDYCIITPPEKLNITAIDTYDDHRMAMAFSLAACADVPVTIRDPGCTRKTFPNYFDVLSTFVRN	normal EPSPS enzyme activity	could grow	–	–	could grow	obviously superior to that of the E. coli transformed by R2
R6: rice EPSPS mutant, SEQ ID NO: 40, mutations S267(247)G, L214(195)P and P116(101)S (protein) MASNAAAAAAKAEEIVLQPIREISGAVQLPGSKSLSNRILLLSALSEGTTVVDNLLNSEDVHYMLEALKALGLSVEADKVAKRAVVVGCGGKFPVEKDAKEEVQLFLGNAGTAMRSLTAAVTAAGGNATYVLDGVPRMRERPIGDLVVGLKQLGADVDCFLGTECPPVRVKGIGGLPGGKVKLSGSISSQYLSALLMAAPLALGDVEIEIIDKPISIPYVEMTLRLMERFGVKAEHSDSWDRFYIKGGQKYKSPGNAYVEGDASSAGYFLAGAAITGGTVTVQGCGTTSLQGDVKFAEVLEMMGAKVTWTDTSVTVTGPPREPYGKKHLKAVDVNMNKMPDVAMTLAVVALFADGPTAIRDVASWRVKETERMVAIRTELTKLGASVEEGPDYCIITPPEKLNITAIDTYDDHRMAMAFSLAACADVPVTIRDPGCTRKTFPNYFDVLSTFVRN	normal EPSPS enzyme activity	could grow	–	–	could grow	superior to that of the E. coli transformed by R2
